Like-named read-outs stand apart in the source and are kept apart here.
Test system: SARS-CoV-2
[1] = Treated within 5 days of symptom onset, n=800 vs placebo 879
[2] = Unvaccinated population, n=143 vs placebo 176
[3] = final, treatment ≤3 days of symptom onset
[4] = high-risk patients, pooled Brazil+Toronto
[5] = intention-to-treat, N = 931 vs placebo N = 1018
[6] = treatment within 3 days of symptom onset
[7] = unvaccinated patients, treatment within 3 days of symptoms
[8] = ≤3 days of symptoms before treatment, preliminary

B1: pegylated interferon lambda-1a (protein)
chain: MKPTTTGKGCHIGRFKSLSPQELASFKKARDALEESLKLKNWSCSSPVFPGNWDLRLLQVRERPVALEAELALTLKVLEAAAGPALEDVLDQPLHTLHHILSQLQACIQPQPTAGPRPRGRLHHWLHRLQEAPKKESAGCLEASVTFNLFRLLTRDLKYVADGNLSLRTSTHPEST
modifications: PEG
notes: 180 mcg subcutaneous injection
Hospitalization or ER (any duration) for COVID-19, RR (95% CrI) vs placebo [1]: 0.73 (0.56, 0.94)
Hospitalization or ER ≥6 h for COVID-19, % of patients [1]: (2.5%)
Hospitalization or ER ≥6 h for COVID-19, Pr (Superiority) [1]: 1.000
Hospitalization or ER ≥6 h for COVID-19, RR (95% CrI) vs placebo [1]: 0.45 (0.26, 0.72)
Death due to COVID-19, % of patients [2]: 0 (0%)
Death due to COVID-19, RR (95% CrI) vs placebo [2]: 0.51 (0.02, 6.47)
Death or hospitalization due to COVID-19, % of patients [2]: 4.2%
Death or hospitalization due to COVID-19, RR (95% CrI) vs placebo [2]: 0.49 (0.19, 1.12)
Hospitalization for COVID-19, % of patients [2]: 4.2%
Hospitalization for COVID-19, RR (95% CrI) vs placebo [2]: 0.49 (0.19, 1.12)
Hospitalization or ER (any duration) for COVID-19, % of patients [2]: 16.1%
Hospitalization or ER (any duration) for COVID-19, Pr (Superiority) [2]: 0.806
Hospitalization or ER (any duration) for COVID-19, RR (95% CrI) vs placebo [2]: 0.82 (0.50, 1.29)
Hospitalization or ER ≥6 h for COVID-19, % of patients [2]: 4.2%
Hospitalization or ER ≥6 h for COVID-19, Pr (Superiority) [2]: 0.967
Hospitalization or ER ≥6 h for COVID-19, RR (95% CrI) vs placebo [2]: 0.46 (0.18, 1.05)
deaths in the arm (early treated patients): no deaths
COVID-19 deaths in the treatment arm (final ITT): one
Hazard ratio, COVID-19-related hospitalization or death (all-cause death) (final ITT): 0.59
hazard ratio, COVID-19 death (final ITT): 0.22
hazard ratio, risk of hospitalization (final ITT): 0.57
relative risk, COVID-19-related hospitalization alone (final ITT): 0.57
risk reduction, COVID-19-related hospitalization or all-cause death (final ITT): 41%
relative risk, primary outcome (final ITT, 931 vs placebo 1018): 0.49
participants experiencing a primary outcome event, % (final ITT, n=931): 2.7%
participants experiencing a primary outcome event, count (final ITT, n=931): 25 of 931
absolute risk reduction (with 95% Bayesian credible intervals) plotted, FIG. 14 (final ITT, patients receiving peginterferon lambda): 0.028 (0.018, 0.039)
relative risk, primary outcome (final, treatment within 3 days of symptom onset): 0.42
Hazard ratio, COVID-19-related hospitalization or death [3]: 0.35
risk reduction, COVID-19-related hospitalization or death [3]: 65%
RR, All-cause mortality or Hospitalization (high-risk patients, Brazil): 0.69
RR, Death or Hospitalization due to COVID-19 (high-risk patients, Brazil): 0.63
RR, Hospitalization or ER visit>6 hours (high-risk patients, Brazil): 0.49
probability of superiority (Pr), Hospitalization or ER visit>6 hours (high-risk patients, Brazil): 0.990
Pr, Hospitalization or ER visit>6 hours [4]: 0.990
RR, All-cause mortality or Hospitalization [4]: 0.69
RR, Death or Hospitalization due to COVID-19 [4]: 0.63
RR, Hospitalization or ER visit>6 hours [4]: 0.49
participants with primary outcome event, count (human, in vivo): 23/929
relative risk, primary outcome (human, in vivo): 0.47
Days on mechanical ventilation: mean (intention-to-treat, N = 931): 10.2 days
Death due to COVID-19: percentage of patients (intention-to-treat, N = 931): (0.1%)
Death due to COVID-19: total (no. of patients) (intention-to-treat, N = 931): 1
Death or hospitalization due to COVID-19: percentage of patients (intention-to-treat, N = 931): (2.4%)
Death or hospitalization due to COVID-19: total (no. of patients) (intention-to-treat, N = 931): 22
Hospitalization for COVID-19: percentage of patients (intention-to-treat, N = 931): (2.3%)
Hospitalization for COVID-19: total (no. of patients) (intention-to-treat, N = 931): 21
Hospitalization or ER (any duration) for COVID-19: percentage of patients (intention-to-treat, N = 931): (10.6%)
Hospitalization or ER (any duration) for COVID-19: total (no. of patients) (intention-to-treat, N = 931): 99
Hospitalization or ER visit >6 h for COVID-19: percentage of patients (intention-to-treat, N = 931): (2.7%)
Hospitalization or ER visit >6 h for COVID-19: total (no. of patients) (intention-to-treat, N = 931): 25
Days on mechanical ventilation: MD (95% CrI), estimated treatment effect [5]: −4.47 (−6.89, 3.09)
Days on mechanical ventilation: Probability of Superiority (MD) [5]: 90.5
Days to death for COVID-19: HR (95% CI), estimated treatment effect [5]: 0.22 (0.01, 1.64)
Days to death for COVID-19: Probability of Superiority (HR) [5]: 90.7
Days to death or hospitalization due to COVID-19: HR (95% CrI), estimated treatment effect [5]: 0.59 (0.35, 0.97)
Days to death or hospitalization due to COVID-19: Probability of Superiority (HR) [5]: 98.1
Days to hospitalization for COVID-19: HR (95% CrI), estimated treatment effect [5]: 0.57 (0.33, 0.95)
Days to hospitalization for COVID-19: Probability of Superiority (HR) [5]: 98.5
Days to hospitalization or ER visit >6 h for COVID-19: HR (95% CrI), estimated treatment effect [5]: 0.47 (0.29, 0.73)
Days to hospitalization or ER visit >6 h for COVID-19: Probability of Superiority (HR) [5]: >99.9
Death due to COVID-19: Probability of Superiority (RR) [5]: 86.9
Death due to COVID-19: RR (95% CrI), estimated treatment effect [5]: 0.39 (0.05, 1.95)
Death or hospitalization due to COVID-19: Probability of Superiority (RR) [5]: 97.7
Death or hospitalization due to COVID-19: RR (95% CrI), estimated treatment effect [5]: 0.61 (0.36, 0.99)
Hospitalization for COVID-19: Probability of Superiority (RR) [5]: 98.3
Hospitalization for COVID-19: RR (95% CrI), estimated treatment effect [5]: 0.58 (0.34, 0.96)
Hospitalization or ER (any duration) for COVID-19: Probability of Superiority (RR) [5]: 98.1
Hospitalization or ER (any duration) for COVID-19: RR (95% CrI), estimated treatment effect [5]: 0.78 (0.61, 0.99)
Hospitalization or ER visit >6 h for COVID-19: Probability of Superiority (RR) [5]: >99.9
Hospitalization or ER visit >6 h for COVID-19: RR (95% CrI), estimated treatment effect [5]: 0.49 (0.30, 0.76)
relative risk, primary outcome (per protocol analysis (25/931 vs 43/825)): 0.52
fewer COVID-19-related deaths than placebo (preliminary ITT): 75%
hazard ratio, COVID-19-related hospitalization [6]: 0.35
relative risk, all-cause death [6]: 0.19
risk reduction in all-cause death [6]: 81%
risk reduction of COVID-19-related hospitalization [6]: 65%
Hazard ratio vs. placebo [7]: 0.11
risk (hazard) reduction, COVID-19-related hospitalization or death [7]: 89%
Risk Reduction (95% BCI), Hospitalizations or Deaths [8]: 60% (17-82%)
Risk Reduction (95% BCI), Hospitalizations or ER visits [8]: 67% (19-79%)
Risk Reduction (95% BCI), Hospitalizations or Deaths (≤7 days of symptoms before treatment, preliminary): 39% (1-64%)
